Holding throughout (assay): SPR
(In general: Surface plasmon resonance follows binding to a sensor surface in real time, without labels.)

In assay [1] the target is Igh^g2A10 mutant Fab J2/L114F with LC_Q106K (mouse).
Assay [2] addresses Igh^g2A10 mutant Fab J1/L114F with LC_Q106R (mouse).
For assay [3], the target named is Igh^g2A10 mutant Fab J2/L114F (mouse).

For the substance “recombinant PfCSP (from UniProt Q7K740 19-374) (natural protein)”, in assay [1], the fold increase in affinity over J2/L114F came to 65 fold. The fold increase in affinity over J1/L114F in assay [2] is 18.2 fold. Moreover, the fold increase in affinity over the J2 UCA in assay [3] worked out at 1.49 fold.

Values taken from publication PMC10922795.
